Assay results: patent US20230151111A1 (AKESO BIOPHARMA, published 2023)

T1: CD73 on cell membrane surface (MDA-MB-231, U87-MG) (human, UniProt P21589 27-549)
T1 construct: whole, on cells; also called NT5E
T1 sequence (looked up): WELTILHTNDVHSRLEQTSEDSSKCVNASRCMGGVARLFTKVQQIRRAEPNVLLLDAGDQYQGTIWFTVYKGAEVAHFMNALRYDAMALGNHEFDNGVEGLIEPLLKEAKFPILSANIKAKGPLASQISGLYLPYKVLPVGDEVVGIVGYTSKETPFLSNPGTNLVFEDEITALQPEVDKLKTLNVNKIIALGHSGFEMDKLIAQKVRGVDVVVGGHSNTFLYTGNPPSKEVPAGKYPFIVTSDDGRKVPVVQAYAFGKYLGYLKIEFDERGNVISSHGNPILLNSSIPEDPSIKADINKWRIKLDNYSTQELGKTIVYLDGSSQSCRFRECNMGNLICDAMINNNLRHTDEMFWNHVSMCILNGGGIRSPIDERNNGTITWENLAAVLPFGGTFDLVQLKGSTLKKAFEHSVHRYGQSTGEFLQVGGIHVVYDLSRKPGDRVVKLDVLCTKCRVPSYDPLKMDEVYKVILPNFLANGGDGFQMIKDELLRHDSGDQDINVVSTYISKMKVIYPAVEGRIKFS


Assays:
[1] = target: T2, PD-1 on 293T-PD1 cell surface (human, UniProt Q15116 25-288); test: flow cytometry, 293T-PD1 cells; antibody 0.05 nM
T2 construct: whole, on cells
Experimental: (§1) 500 μL of PBSA was added, and the mixture was centrifuged at 5600 rpm for 5 min to remove the supernatant. […] The system was mixed gently and uniformly, and then was incubated on ice for 1 h. Then 500 μL of PBSA was added, and the mixture was centrifuged at 5600 rpm for 5 min to remove the supernatant. […] 500 μL of PBSA was added, and the mixture was centrifuged at 5600 rpm for 5 min to remove the supernatant. At last, 200 μL of PBSA was added to resuspend cell precipitates, and the mixture was transferred to a flow tube for FACSCalibur detection.

[2] = target: T1, CD73 on cell membrane surface …; test: flow cytometry, MDA-MB-231 cells; antibody 3.70 nM
Experimental: (§2) MDA-MB-231 cells in logarithmic phase were digested with conventional trypsin and transferred to a 1.5 mL centrifuge tube at 3×10⁵ cells/tube. 500 μL of PBSA was added, and the mixture was centrifuged at 5600 rpm for 5 min to remove the supernatant. […] The system was mixed gently and uniformly, and then was incubated on ice for 1 h. Then 500 μL of PBSA was added, and the mixture was centrifuged at 5600 rpm for 5 min to remove the supernatant. […] 500 μL of PBSA was added, and the mixture was centrifuged at 5600 rpm for 5 min to remove the supernatant. At last, 200 μL of PBSA was added to resuspend cell precipitates, and the mixture was transferred to a flow tube for FACSCalibur detection.

[3] = target: T2, PD-1 on 293T-PD1 cell surface; test: flow cytometry, 293T-PD1 cells; antibody 0.14 nM
Experimental: as §1

[4] = target: T1, CD73 on cell membrane surface …; test: flow cytometry, MDA-MB-231 cells; antibody 0.05 nM
Experimental: as §2

[5] = target: T2, PD-1 on 293T-PD1 cell surface; test: flow cytometry, 293T-PD1 cells; antibody 11.11 nM
Experimental: as §1

[6] = target: T2, PD-1 on 293T-PD1 cell surface; test: flow cytometry, 293T-PD1 cells; antibody 33.33 nM
Experimental: as §1

[7] = target: T1, CD73 on cell membrane surface …; test: flow cytometry, MDA-MB-231 cells; antibody 33.33 nM
Experimental: as §2

[8] = target: T1, CD73 on cell membrane surface …; test: flow cytometry, MDA-MB-231 cells; antibody 0.14 nM
Experimental: as §2

[9] = target: T1, CD73 on cell membrane surface …; test: flow cytometry, MDA-MB-231 cells; antibody 0.41 nM
Experimental: as §2

human PD-1-mFc-biotin = human PD-1-mFc-biotin (human, UniProt Q15116 25-170, limits assumed, biotin label, site not stated); test: competitive ELISA, blocking of PD-1-mFc-biotin binding to coated PD-L1-mFc
Experimental: After incubation, the microplate was blocked with a PBS solution containing 1% BSA at 37° C. for 2 h. After blocking, the plate was washed three times and dried. The antibody was serially diluted to 7 concentrations in a gradient ratio of 1:3 on a dilution plate with 10 μg/mL as the starting concentration, and a blank control was set. […] Then the mixture after reaction was added to the coated microplate, and the microplate was incubated for at 37° C. for 30 min. After incubation, the plate was washed three times with PBST and dried. SA-HRP (KPL, 14-30-00) working solution was added, and the plate was incubated at 37° C. for 30 min. After incubation, the plate was washed four times and patted dry. Then TMB (Neogen, 308177) was added in the dark for chromogenesis for 5 min, and a stop solution was added to terminate chromogenic reaction. Then the microplate was put into a microplate reader immediately, and the OD value of each well in the microplate was read at 450 nm. The data were analyzed and processed by SoftMax Pro 6.2.1.

[10] = target: T1, CD73 on cell membrane surface …; test: flow cytometry, MDA-MB-231 cells; antibody 1.23 nM
Experimental: as §2

[11] = target: T2, PD-1 on 293T-PD1 cell surface; test: flow cytometry, 293T-PD1 cells; antibody 3.70 nM
Experimental: as §1

[12] = target: T2, PD-1 on 293T-PD1 cell surface; test: flow cytometry, 293T-PD1 cells
Experimental: as §1

[13] = target: T1, CD73 on cell membrane surface …; test: flow cytometry, MDA-MB-231 cells; antibody 100.00 nM
Experimental: as §2

[14] = target: T1, CD73 on cell membrane surface …; test: flow cytometry, MDA-MB-231 cells; antibody 11.11 nM
Experimental: as §2

T2 sequence (Q15116 25-288): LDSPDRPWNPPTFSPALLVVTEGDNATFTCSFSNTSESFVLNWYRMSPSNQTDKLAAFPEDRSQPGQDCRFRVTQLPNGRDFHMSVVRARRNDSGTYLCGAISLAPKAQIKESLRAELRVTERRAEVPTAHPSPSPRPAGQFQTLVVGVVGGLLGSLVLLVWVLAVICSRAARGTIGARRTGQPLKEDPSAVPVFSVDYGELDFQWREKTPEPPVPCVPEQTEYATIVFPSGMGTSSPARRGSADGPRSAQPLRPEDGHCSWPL
human PD-1-mFc-biotin, sequence (Q15116 other isoform, or with tags, fused parts or gaps limits assumed): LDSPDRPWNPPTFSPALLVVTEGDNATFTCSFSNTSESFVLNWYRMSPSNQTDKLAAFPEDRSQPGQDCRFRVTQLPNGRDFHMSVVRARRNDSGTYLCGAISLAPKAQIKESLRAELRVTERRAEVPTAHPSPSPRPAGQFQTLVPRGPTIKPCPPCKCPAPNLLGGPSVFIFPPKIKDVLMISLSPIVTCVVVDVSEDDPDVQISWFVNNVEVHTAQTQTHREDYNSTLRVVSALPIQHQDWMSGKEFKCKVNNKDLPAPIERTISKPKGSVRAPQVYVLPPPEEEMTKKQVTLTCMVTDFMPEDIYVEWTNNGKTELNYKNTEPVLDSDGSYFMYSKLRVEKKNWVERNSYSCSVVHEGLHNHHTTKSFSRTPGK

Binder	FACS signal [1]	FACS signal [2]	FACS signal [3]	FACS signal [4]	FACS signal [5]	FACS signal [6]	FACS signal [7]	FACS signal [8]	FACS signal [9]	EC50 (human PD-1-mFc-biotin) [nM]	FACS signal [10]	FACS signal [11]	EC50 [12] [nM]	FACS signal [13]	FACS signal [14]
P1D7V01 (bispecific antibody, human IgG1, kappa, Morrison form IgG-scFv) heavy: not shown light: DIQMTQSPSSMSASVGDRVTFTCRASQDINTYLSWFQQKPGKSPKTLIYRANRLVSGVPSRFSGSGSGQDYTLTISSLQPEDMATYYCLQYDEFPLTFGAGTKLELKRTVAAPSVFIFPPSDEQLKSGTASVVCLLNNFYPREAKVQWKVDNALQSGNSQESVTEQDSKDSTYSLSSTLTLSKADYEKHKVYACEVTHQGLSSPVTKSFNRGEC	26.6	572	58.6	23.4	578	479	526	38	76.8	1.11	272	531	1	706	561
P1D7V03 (bispecific antibody, human IgG1, kappa, Morrison form IgG-scFv) heavy: not shown light: DIQMTQSPSSMSASVGDRVTFTCRASQDINTYLSWFQQKPGKSPKTLIYRANRLVSGVPSRFSGSGSGQDYTLTISSLQPEDMATYYCLQYDEFPLTFGAGTKLELKRTVAAPSVFIFPPSDEQLKSGTASVVCLLNNFYPREAKVQWKVDNALQSGNSQESVTEQDSKDSTYSLSSTLTLSKADYEKHKVYACEVTHQGLSSPVTKSFNRGEC	24.1	458	49.2	17	459	808	576	44	106	1.15	233	385	1.38	678	525
